This is an account of results in US20250289867A1.

This assay addresses MERS spike on pseudotyped lentiviral particles (MERS coronavirus) (UniProt K9N5Q8). The assay can be described thus: cell-based or functional assay.
UniProt K9N5Q8, sequence (K9N5Q8 18-1353): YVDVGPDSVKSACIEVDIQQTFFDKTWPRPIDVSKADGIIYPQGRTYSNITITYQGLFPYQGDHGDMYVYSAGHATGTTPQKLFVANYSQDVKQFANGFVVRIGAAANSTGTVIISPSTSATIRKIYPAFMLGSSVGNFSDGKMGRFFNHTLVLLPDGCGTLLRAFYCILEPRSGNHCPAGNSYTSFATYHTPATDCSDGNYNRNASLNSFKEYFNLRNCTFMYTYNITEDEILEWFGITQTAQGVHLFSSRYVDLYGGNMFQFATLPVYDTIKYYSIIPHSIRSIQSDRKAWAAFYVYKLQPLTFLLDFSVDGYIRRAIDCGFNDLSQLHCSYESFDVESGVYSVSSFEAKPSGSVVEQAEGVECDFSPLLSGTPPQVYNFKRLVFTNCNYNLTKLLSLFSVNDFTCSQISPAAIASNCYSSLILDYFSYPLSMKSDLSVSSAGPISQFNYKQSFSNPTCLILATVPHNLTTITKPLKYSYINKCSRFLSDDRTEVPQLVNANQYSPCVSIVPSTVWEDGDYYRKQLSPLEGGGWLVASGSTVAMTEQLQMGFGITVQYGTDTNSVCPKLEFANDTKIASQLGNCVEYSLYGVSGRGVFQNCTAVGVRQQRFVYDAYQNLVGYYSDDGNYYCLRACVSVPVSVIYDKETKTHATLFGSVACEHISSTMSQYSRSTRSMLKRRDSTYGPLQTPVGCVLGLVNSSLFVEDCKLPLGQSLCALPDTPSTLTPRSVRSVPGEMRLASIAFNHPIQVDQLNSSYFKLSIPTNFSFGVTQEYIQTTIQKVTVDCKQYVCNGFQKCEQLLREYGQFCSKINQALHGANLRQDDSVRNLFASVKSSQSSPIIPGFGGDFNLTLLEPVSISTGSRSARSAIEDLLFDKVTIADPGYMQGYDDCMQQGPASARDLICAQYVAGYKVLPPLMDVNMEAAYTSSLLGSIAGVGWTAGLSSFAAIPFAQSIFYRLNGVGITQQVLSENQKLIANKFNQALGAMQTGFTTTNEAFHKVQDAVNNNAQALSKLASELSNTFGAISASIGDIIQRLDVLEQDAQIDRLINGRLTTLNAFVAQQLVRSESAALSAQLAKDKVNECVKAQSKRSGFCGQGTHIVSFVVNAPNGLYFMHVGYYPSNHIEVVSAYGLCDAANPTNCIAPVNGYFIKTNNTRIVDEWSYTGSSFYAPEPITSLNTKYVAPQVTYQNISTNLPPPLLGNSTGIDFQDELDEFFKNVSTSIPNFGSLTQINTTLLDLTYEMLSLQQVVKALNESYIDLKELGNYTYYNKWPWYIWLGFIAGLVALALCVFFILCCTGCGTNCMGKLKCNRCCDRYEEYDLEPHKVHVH

Turning to “DPP4 recombinant protein (from UniProt P27487 39-766) (receptor)”, the IC50, pseudovirus microneutralization assay, H1650 target cells was more than 48000 pM. For “NA75-DPP4, displayed on lentiviral-based multivalent particles (from UniProt P27487 30-766) (receptor)”, the IC50, pseudovirus neutralization assay, H1650 target cells was 0.87 pM.
